Assay results published in patent publication US20230399385A1 (NANJING VAZYME BIOTECH, published 2023).

How the values were obtained:
[1] = target: SARS-CoV-2 spike (S) glycoprotein, wild-type, on pseudotyped virus (SARS-CoV-2, UniProt P0DTC2 14-1273); assay: cell-based or functional assay
[2] = target: T1, SARS-CoV-2 RBD (receptor binding domain of the spike protein of SARS-CoV-2; Vazyme Biotech) (SARS-CoV-2, UniProt P0DTC2 319-541); assay: biolayer interferometry, ForteBio Octet RED96e, RBD 100 nM to 3.13 nM, 1:1 Langmuir model
[3] = target: T1, SARS-CoV-2 RBD (receptor binding domain …); assay: method not stated in this sentence (summary of Example 1); biolayer interferometry in Example 2
[4] = target: T1, SARS-CoV-2 RBD (receptor binding domain …); assay: HTRF ACE2/RBD binding assay (665/620 ratio): Antibody 5-10 titrated, blocked ligand ACE2
[5] = target: T1, SARS-CoV-2 RBD (receptor binding domain …); assay: ELISA: SARS-CoV-2 RBD coated on the plate, Antibody 5-10 titrated, detected with anti-human IgG-HRP/TMB, OD450

B1: Antibody 5-10 (antibody, V domains shown)
VH: EVQLLESGGGLVQPGGSLRLSCAASGFTFSSYAMSWVRQAPGKGLEWVSAIVGSGGSTYYADSVKGRFIISRDNSKNTLYLQMNSLRAEDTAVYYCAKSLIYGHYDILTGAYYFDYWGQGTLVTVSS
VL: DIQMTQSPSSVSASVGDRVTIPCRASQGIGNWLAWYQQKPGKAPKLLIYAASSLQSGVPSRFSGSGSGTDFTLTISSLQPEDFATYYCQQANSFPPFGQGTRLEIK
notes: also called anti-SARS-CoV-2 RBD Antibody 5-10; monoclonal Antibody 5-10
B1 was tested, and the “IC50, neutralizing effects on SARS-CoV-2 pseudovirus” value [1] was 0.0425 mg/L, the Kd [2] was 4.32 nM and the Kd [3] was 4.31 nM. It also gave an IC50 [4] of 0.231 mg/L and an EC50 [5] of 0.0269 mg/L.
